The test system of the test is cell membrane localization in HeLa cells and mouse primary neurons. Put plainly: Immunostaining of membrane localization of MDGA2, ΔMAM or V930I in transfected cells. In kind it is cell-based. The conditions noted are these: HeLa cells transfected 24 h, S3E Fig. The text has this: Fig 7 The autism spectrum disorder (ASD)-associated MDGA2 V930I mutation impairs the MDGA2-TrkB interaction and MDGA2’s inhibitory effect on the tyrosine kinase B (TrkB) signaling. (A) Schematic depiction of the WT human MDGA2 and its V930I mutation constructs that are tagged with GFP. (B, C) HeLa cells (B) and mouse primary neurons (C) transfected with MDGA2 (green) or V930I (green) were immunostained with an antibody against the plasma membrane protein ATP1A1 (red) and then observed by confocal microscopy. Scale bars = 10 μm. (D) Cell surface expression of WT MDGA2 or V930I in transfected HeLa cells was determined by surface biotinylation assays. Biotinylated (cell surface) protein levels were quantified by densitometry and normalized to total protein levels for comparison (WT MDGA2 levels were set to one arbitrary unit). n = 4 experimental replicates. (E) Mouse primary neurons were transfected with MDGA2, V930I, or ΔMAM. […] Immunoprecipitated protein levels were quantified by densitometry, normalized to respective inputs, and compared to those transfected with MDGA2 (set to one arbitrary units). n = 4 experimental replicates. […] Levels of phosphorylated proteins were quantified by densitometry, normalized to respective total protein levels and compared to controls (set to one arbitrary units). n = 6 experimental replicates. […]

Results on 1 molecule are retold here after paper PMC11960969, “Mdga2 deficiency leads to an aberrant activation of BDNF/TrkB signaling that underlies autism-relevant synaptic and behavioral changes in mice” (PLOS Biology, 2025).

B1: MDGA2-ΔMAM: truncated form of MDGA2 lacking its MAM domain (protein)
chain: PPTVRIVHSGLACNIEEERYSERVYTIREGETLELTCLVTGHPRPQIRWTKTAGSASDRFQDSSVFNETLRITNIQRHQGGRYYCKAENGLGSPAIKSIRVDVYYLDDPVVTVHQSIGEAKEQFYYERTVFLRCVANSNPPVRYSWRRGQEVLLQGSDKGVEIYEPFFTQGETKILKLKNLRPQDYANYSCIASVRNVCNIPDKMVSFRLSNKTASPSIKLLVDDPIVVNPGEAITLVCVTTGGEPAPSLTWVRSFGTLPEKTVLNGGTLTIPAITSDDAGTYSCIANNNVGNPAKKSTNIIVRALKKGRFWITPDPYHKDDNIQIGREVKISCQVEAVPSEELTFSWFKNGRPLRSSERMVITQTDPDVSPGTTNLDIIDLKFTDFGTYTCVASLKGGGISDISIDVNISSSTVPPNLTVPQEKSPLVTREGDTIELQCQVTGKPKPIILWSRADKEVAMPDGSMQMESYDGTLRIVNVSREMSGMYRCQTSQYNGFNVKPREALVQLIVQYPPAVEPAFLEIRQGQDRSVTMSCRVLRAYPIRVLTYEWRLGNKLLRTGQFDSQEYTEYAVKSLSNENYGVYNCSIINEAGAGRCSFLVTGKAYAPEFYYDTYNPVWQNRHRVYSYSLQWTQMNPDAVDRIVAYRLGIRQAGQQRWWEQEIKINGNIQKGELITYNLTELIKPEAYEVRLTPLTKFGEGDSTIRVIKYSAPVNPHLREQDLATKNSVD
modifications: left off: GFP, end not stated, kept
notes: truncated form of MDGA2 lacking its MAM domain
As for B1, the cell membrane localization result is recorded as “no effect on its cell membrane localization”.
